The results in this text go back to article PMC4373793.

Usually stoichiometry N stands for the number of molecules, sites or subunits per partner or assembly.

Several values for one entry are separate records, joined by “and”; a condition that tells them apart may be missing. Equal entries are not always repeated.

Experiment [1] concerns the target Streptococcal surface enolase mutant SEN^K362A (Streptococcus pyogenes (group A Streptococcus)) (UniProt P69949). Description: native MS; Superdex-200 in 200 mM NH4OAc pH 6.8, peak fractions pooled, Synapt HDMS under conditions that preserve non-covalent interactions; single peak of wild type and K312A, elution peak 1 of K362A.
Experiment [2] shares this target. The experiment is described as follows: crystal structure; hanging drop, 1-3.5 M sodium/potassium phosphate pH 5-7.5, 2% PEG 400; space group P4; octamer = tetramer of dimers.
Experiment [3] deals with Human Glu-plasminogen (circulating form of human plasminogen) (human). The experiment is described as follows: SPR; BIAcore 3000; Glu-plasminogen immobilised on a CM5 chip (~10,000 RU; also a lower-density surface ~1,000 RU); 100 nM SEN injected 500 s at room temperature in 10 mM HEPES pH 7.4, 0.15 M NaCl, 3 mM EDTA, 0.005% P20, 30 ul/min; kinetic models could not be fitted, assessed qualitatively.

Experiment [4] has the same target. The experiment is described as follows: ELISA; plate coated with serial dilutions of Glu-plasminogen (carbonate buffer pH 9.6); wells incubated with 5 ug wild-type or mutant SEN; apparent KD, one-site specific binding. On the technique in general: An ELISA detects its analyte on a solid surface through an enzyme-linked reagent.
In experiment [5] the target is Streptococcal surface enolase mutant SEN^K312A (Streptococcus pyogenes (group A Streptococcus)) (UniProt P69949). Description: native MS; Superdex-200 in 200 mM NH4OAc pH 6.8, peak fractions pooled, Synapt HDMS under conditions that preserve non-covalent interactions; single peak of wild type and K312A, elution peak 1 of K362A.
Experiment [6] has the same target. The experiment is described as follows: crystal structure; hanging drop, 1-3.5 M sodium/potassium phosphate pH 5-7.5, 2% PEG 400; space group P4; octamer = tetramer of dimers.
The target in experiment [7] is Streptococcal surface enolase (SEN), wild-type, group A Streptococcus (Streptococcus pyogenes) (Streptococcus pyogenes (group A Streptococcus)) (UniProt P69949). The experiment is described as follows: native MS; Superdex-200 in 200 mM NH4OAc pH 6.8, peak fractions pooled, Synapt HDMS under conditions that preserve non-covalent interactions; single peak of wild type and K312A, elution peak 1 of K362A.

Experiment [8] shares this target. The experiment is described as follows: crystal structure; hanging drop, 1-3.5 M sodium/potassium phosphate pH 5-7.5, 2% PEG 400; space group P4; octamer = tetramer of dimers.

As for “Streptococcal surface enolase mutant SEN^K362A (from UniProt P69949 1-435) (enzyme)”, the stoichiometry N in experiment [1] is 8 and 7; in experiment [2], 8. The substance also had a percent increase in plasminogen binding (against wild-type SEN) in experiment [3] of 341%. Besides, in experiment [4], the Kd came out at 1.85 nM.
On to “Streptococcal surface enolase mutant SEN^K312A (from UniProt P69949 1-435) (enzyme)”, for which the stoichiometry N in experiment [5] and in experiment [6] was 8 in each case. The same substance registered a percent increase in plasminogen binding (against wild-type SEN) in experiment [3] of 196%. Further, the Kd in experiment [4] is 19.3 nM.
As for “Streptococcal surface enolase (SEN), wild-type, group A Streptococcus (Streptococcus pyogenes) (from UniProt P69949 1-435) (enzyme)”, the stoichiometry N in experiment [7] and in experiment [8] was 8 throughout. Further, the Kd in experiment [4] is 14.1 nM.
